Experiments:
[1] = target: T1, human IL-18 binding protein (IL-18BP) (human, UniProt O95998 31-194); assay: Octet BLI
T1 construct: also called hu IL-18BP; hIL18BP
T1 sequence (looked up): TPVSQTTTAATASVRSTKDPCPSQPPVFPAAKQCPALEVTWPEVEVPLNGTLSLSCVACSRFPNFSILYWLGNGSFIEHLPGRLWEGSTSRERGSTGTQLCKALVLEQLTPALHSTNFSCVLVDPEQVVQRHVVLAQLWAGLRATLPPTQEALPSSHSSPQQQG
Method: Octet 96red instrument was used to determine affinities of IL18 proteins to BP or receptors. 5-10 ug/ml analyte proteins were used for loading on Sartorius tips (AHC or SA). […] 120-180 s loading, 200 s association and 800 s dissociation were used for kinetics. 3-7 data points were used to calculate affinities.
Select G3/K53-substitution containing IL-18 variants and select G3/K53/N91-substitution containing TL-18 variants were tested for activity in the HEK-blue activity assay and for binding affinity to IL-18BP. As shown in the data of Table 15 and Table 16 below, each variant had similar or better activity than WT IL-18, and retained substantial activity in the presence of IL-18BP.

[2] = target: T1, human IL-18 binding protein (IL-18BP); assay: cell-based or functional assay
[3] = target: T2, IL-18 receptors on HEK-Blue IL-18 reporter cells (InvivoGen) (UniProt Q13478 19-541; O95256 20-599); assay: cell-based or functional assay
T2 sequence (looked up) 1: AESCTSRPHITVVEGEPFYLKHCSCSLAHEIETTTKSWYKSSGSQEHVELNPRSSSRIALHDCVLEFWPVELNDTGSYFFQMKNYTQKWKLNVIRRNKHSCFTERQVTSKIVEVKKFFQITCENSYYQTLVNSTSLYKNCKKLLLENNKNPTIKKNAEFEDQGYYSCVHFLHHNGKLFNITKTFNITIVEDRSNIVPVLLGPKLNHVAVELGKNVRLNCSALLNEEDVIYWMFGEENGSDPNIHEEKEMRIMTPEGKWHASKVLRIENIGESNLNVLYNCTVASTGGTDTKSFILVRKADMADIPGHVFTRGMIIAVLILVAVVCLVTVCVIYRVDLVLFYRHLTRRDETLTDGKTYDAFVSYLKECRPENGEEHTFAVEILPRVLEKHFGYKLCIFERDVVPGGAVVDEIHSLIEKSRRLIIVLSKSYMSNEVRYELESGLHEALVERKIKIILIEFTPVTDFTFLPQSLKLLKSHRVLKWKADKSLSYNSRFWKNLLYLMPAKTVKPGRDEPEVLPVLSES
T2 sequence (looked up) 2: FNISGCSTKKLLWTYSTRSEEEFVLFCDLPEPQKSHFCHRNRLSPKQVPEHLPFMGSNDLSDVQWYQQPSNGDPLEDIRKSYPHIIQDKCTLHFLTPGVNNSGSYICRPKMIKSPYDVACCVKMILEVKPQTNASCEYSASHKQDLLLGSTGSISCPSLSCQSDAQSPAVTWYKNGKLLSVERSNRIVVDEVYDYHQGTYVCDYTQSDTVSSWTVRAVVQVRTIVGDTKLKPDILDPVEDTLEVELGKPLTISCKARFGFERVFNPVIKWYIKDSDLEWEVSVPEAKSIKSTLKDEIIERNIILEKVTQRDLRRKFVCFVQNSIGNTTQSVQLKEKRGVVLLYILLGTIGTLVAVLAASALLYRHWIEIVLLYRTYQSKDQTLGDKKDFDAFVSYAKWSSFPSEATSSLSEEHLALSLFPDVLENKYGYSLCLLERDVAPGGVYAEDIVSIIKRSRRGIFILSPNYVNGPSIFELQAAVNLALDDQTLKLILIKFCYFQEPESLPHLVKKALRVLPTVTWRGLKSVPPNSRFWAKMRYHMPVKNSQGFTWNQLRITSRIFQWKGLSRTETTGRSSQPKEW

[4] = target: T3, IL-18 receptor (IL-18Rα and IL-18Rβ) (UniProt Q13478 19-541; O95256 20-599, limits assumed); assay: cell-based or functional assay
T3 sequence (looked up) 1: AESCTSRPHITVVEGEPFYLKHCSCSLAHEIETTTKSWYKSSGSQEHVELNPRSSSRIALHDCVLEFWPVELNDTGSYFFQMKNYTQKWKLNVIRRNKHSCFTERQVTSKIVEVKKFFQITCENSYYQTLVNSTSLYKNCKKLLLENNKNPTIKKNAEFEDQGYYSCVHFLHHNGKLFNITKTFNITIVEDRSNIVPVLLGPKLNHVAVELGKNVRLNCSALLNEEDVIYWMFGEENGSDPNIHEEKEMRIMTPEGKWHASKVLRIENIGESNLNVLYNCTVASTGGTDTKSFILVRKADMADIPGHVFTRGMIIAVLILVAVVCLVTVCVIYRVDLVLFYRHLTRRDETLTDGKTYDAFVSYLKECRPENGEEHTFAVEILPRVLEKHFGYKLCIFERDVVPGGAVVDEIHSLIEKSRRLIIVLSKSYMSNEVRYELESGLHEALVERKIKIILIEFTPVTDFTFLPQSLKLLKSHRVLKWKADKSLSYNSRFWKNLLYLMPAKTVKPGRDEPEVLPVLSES
T3 sequence (looked up) 2: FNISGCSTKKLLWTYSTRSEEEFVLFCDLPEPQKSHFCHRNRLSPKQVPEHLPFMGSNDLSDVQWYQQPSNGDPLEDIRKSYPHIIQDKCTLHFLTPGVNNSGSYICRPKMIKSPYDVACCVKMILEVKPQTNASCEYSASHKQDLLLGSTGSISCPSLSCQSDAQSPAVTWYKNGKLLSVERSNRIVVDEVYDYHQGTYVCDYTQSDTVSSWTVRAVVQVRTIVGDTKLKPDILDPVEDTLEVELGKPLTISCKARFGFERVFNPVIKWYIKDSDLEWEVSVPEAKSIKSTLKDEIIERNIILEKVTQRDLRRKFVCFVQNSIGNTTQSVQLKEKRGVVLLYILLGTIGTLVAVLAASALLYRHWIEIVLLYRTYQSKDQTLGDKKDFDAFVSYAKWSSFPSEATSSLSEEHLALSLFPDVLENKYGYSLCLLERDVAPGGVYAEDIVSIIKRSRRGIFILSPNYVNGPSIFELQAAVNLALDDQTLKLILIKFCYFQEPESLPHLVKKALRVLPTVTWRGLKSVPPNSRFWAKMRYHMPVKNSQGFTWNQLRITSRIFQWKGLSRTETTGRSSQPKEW

[5] = target: T4, interleukin 18 binding protein (IL-18BP) (UniProt O95998 31-194); assay: cell-based or functional assay
T4 sequence (looked up): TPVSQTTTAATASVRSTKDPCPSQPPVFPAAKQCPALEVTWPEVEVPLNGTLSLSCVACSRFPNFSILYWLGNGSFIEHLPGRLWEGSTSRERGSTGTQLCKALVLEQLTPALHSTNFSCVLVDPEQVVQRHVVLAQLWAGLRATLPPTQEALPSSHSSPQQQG

[6] = target: T5, IL-18 receptors on HEK-Blue IL-18 reporter cells (UniProt Q13478 19-541; O95256 20-599, limits assumed); assay: cell-based or functional assay
T5 sequence (looked up) 1: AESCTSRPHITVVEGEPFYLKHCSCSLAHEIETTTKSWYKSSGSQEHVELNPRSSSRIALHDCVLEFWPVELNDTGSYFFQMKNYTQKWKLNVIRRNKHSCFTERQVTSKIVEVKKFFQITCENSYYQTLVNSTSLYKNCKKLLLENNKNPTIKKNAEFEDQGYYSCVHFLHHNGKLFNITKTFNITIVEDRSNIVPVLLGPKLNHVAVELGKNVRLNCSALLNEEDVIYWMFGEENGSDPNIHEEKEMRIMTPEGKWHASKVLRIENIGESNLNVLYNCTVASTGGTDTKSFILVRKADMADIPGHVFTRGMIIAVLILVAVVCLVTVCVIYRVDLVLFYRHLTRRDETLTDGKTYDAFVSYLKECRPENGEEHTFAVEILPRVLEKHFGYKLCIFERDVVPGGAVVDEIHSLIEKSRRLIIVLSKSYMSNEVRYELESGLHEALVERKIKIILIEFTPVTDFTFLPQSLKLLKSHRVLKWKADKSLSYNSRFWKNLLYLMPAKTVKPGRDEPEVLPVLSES
T5 sequence (looked up) 2: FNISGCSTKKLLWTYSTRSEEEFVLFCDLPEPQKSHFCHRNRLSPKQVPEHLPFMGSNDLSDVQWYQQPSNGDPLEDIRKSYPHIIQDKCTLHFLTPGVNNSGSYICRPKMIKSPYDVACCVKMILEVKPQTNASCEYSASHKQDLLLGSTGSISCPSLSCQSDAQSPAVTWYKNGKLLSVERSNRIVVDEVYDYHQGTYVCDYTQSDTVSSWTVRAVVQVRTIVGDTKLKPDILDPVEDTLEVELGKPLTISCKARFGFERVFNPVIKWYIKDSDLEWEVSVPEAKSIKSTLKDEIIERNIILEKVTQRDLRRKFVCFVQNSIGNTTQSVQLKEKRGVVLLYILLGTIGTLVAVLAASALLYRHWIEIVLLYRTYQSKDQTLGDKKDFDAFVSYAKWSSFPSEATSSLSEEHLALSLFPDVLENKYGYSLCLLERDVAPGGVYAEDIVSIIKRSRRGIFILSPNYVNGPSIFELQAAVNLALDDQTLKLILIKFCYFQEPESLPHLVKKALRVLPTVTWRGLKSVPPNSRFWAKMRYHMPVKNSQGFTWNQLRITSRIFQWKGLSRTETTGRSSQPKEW

[7] = target: T6, interleukin 18 binding protein (IL-18BP) (UniProt O95998 31-194); assay: cell-based or functional assay; remark: listed apart in the source
T6 sequence (looked up): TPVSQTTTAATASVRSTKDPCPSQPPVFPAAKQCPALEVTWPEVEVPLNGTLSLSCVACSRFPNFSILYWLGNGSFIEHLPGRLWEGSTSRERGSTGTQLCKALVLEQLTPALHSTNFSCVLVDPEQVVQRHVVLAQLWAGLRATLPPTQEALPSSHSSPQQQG

B1: IL-18 variant G3R, N91W, K53A (ligand)
chain: YFRKLESKLSVIRNLNDQVLFIDQGNRPLFEDMTDSDMRDNAPRTIFIISMYADSQPRGMAVTISVKSEKISTLSSENKIISFKEMNPPDWIKDTKSDIIFFQRSVPGHDNKMQFESSSYEGYFLASEKERDLFKLILKKEDELGDRSIMFTVQNED
notes: also called G3R/K53A/N91W
Kd [1]: 1 nM | koff [1]: 0.000185 s⁻¹ | kon [1]: 185000 M⁻¹ s⁻¹ | HEK-Blue Ec50 (pM), +IL-18BP (50 nM) [2]: 4.22 pM | HEK-Blue Ec50 (pM), -IL-18BP [3]: 0.04 pM | EC50 pM, IFN gamma expression in PBMCs [4]: 49.8 pM

B2: IL-18 variant K53S, S55G (ligand)
chain: YFGKLESKLSVIRNLNDQVLFIDQGNRPLFEDMTDSDMRDNAPRTIFIISMYSDGQPRGMAVTISVKSEKISTLSSENKIISFKEMNPPDNIKDTKSDIIFFQRSVPGHDNKMQFESSSYEGYFLASEKERDLFKLILKKEDELGDRSIMFTVQNED
HEK-blue EC50 (pM) + 300 nM BP [5]: 103 pM | Ratio [5]: 3.1 | HEK-blue EC50 (pM) - BP [6]: 33.4 pM

B3: IL-18 variant G3E, E6A, K53Q, D54W, S55V, T63M, N91M, R104N (ligand)
chain: YFEKLASKLSVIRNLNDQVLFIDQGNRPLFEDMTDSDMRDNAPRTIFIISMYQWVQPRGMAVMISVKSEKISTLSSENKIISFKEMNPPDMIKDTKSDIIFFQNSVPGHDNKMQFESSSYEGYFLASEKERDLFKLILKKEDELGDRSIMFTVQNED
Ratio (-BP/+BP), DF-1000005 [7]: 0.97 | Ratio (-BP/+BP), DF-5000006 [7]: 1.03 | Ratio (-BP/+BP), DF-25000007 [7]: 0.99

B4: IL-18 variant K53S, S55K (ligand)
chain: YFGKLESKLSVIRNLNDQVLFIDQGNRPLFEDMTDSDMRDNAPRTIFIISMYSDKQPRGMAVTISVKSEKISTLSSENKIISFKEMNPPDNIKDTKSDIIFFQRSVPGHDNKMQFESSSYEGYFLASEKERDLFKLILKKEDELGDRSIMFTVQNED
HEK-blue EC50 (pM) + 300 nM BP [5]: 18.1 pM | Ratio [5]: 0.8 | HEK-blue EC50 (pM) - BP [6]: 21.8 pM

— patent US20240182536A1 (MURAL ONCOLOGY, published 2024)
